The source of these data is patent US20250163162A1 (SYNTHEKINE, published 2025).

Assay [1] concerns the target T1, cIL2Rg-Fc (lot#P210115SV5) (cynomolgus, UniProt A0A2K5VGJ6 23-262).
T1 construct: Named only by lot number; also called cynomolgus IL2Rg-Fc; not shown: Fc of the fusion protein
T1 sequence: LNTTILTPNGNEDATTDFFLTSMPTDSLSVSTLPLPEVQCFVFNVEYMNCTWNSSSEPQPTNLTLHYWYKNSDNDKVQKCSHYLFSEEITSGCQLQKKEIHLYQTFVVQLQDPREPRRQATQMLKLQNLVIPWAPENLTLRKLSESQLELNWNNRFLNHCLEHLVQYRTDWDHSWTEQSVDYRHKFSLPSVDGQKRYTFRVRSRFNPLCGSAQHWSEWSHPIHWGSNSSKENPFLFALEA
The assay is described as follows: SPR (Biacore T200); ratio experimental/calculated Rmax.

The target of assay [2] is T2, hIL2Rg-Fc (SinoBiological cat#10555) (human, UniProt P31785 23-254, limits assumed).
T2 construct: Bought Fc fusion (SinoBiological cat#10555); P31785 is printed for hCD132 in the background; also called human IL2Rg-Fc; not shown: Fc of the bought fusion protein
T2 sequence (looked up): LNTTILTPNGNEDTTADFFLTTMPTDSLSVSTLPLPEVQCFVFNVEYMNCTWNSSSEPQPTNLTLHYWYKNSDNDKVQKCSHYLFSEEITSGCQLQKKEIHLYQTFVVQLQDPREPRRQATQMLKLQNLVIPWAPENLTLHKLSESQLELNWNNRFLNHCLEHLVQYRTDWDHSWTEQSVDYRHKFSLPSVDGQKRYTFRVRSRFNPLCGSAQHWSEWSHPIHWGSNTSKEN
The assay is described as above.

The target of assay [3] is T1, cIL2Rg-Fc (lot#P210115SV5). As to the kind of experiment: SPR (Biacore T200), Fc-fused ligand captured on chip, dual VHH as analyte, 1:1 Langmuir fit. The protocol:
(§1) All experiments were conducted in 10 mM Hepes, 150 mM NaCl, 0.05% (v/v) Polysorbate 20 (PS20) and 3 mM EDTA (HBS-EP+ buffer) on a Biacore T200 instrument equipped with Protein A or CAP biotin chips (Cytiva). For experiments on Protein A chips, Fc-fused ligands were flowed at 5 μl/min for variable time ranging from 18 to 300 seconds, reaching the capture loads listed in the tables below. Following ligand capture, injections of a 2-fold dilution series of analyte typically comprising at least five concentrations between 1 μM and 1 nM were performed in either high performance or single cycle kinetics mode. Surface regeneration was achieved by flowing 10 mM glycine-HCl, pH 1.5 (60 seconds, […]). Buffer-subtracted sensograms were processed with Biacore T200 Evaluation Software and globally fit with a 1:1 Langmuir binding model (bulk shift set to zero) to extract kinetics and affinity constants (kₐ, kd, KD). RMAX<100 RU indicates surface density compatible with kinetics analysis. Experiments on CAP chips were performed as described above with an additional capture step of Biotin CAPture reagent (10 seconds, 40 uL/min) performed prior to capture of biotinylated ligands. Calculated Rmax were generated using the equation Rmax=Load (RU) x valency of ligand x (Molecular weight of analyte/Molecular weight of ligand. Surface activity was defined as the ratio experimental/calculated Rmax. The results of these experiments are provided in below for sample information and experimental results.
(In SPR one partner is held on a chip, and binding of the other changes the refractive index at the surface.)

For assay [4], the target named is T2, hIL2Rg-Fc (SinoBiological cat#10555). The description is as above. The protocol:
as §1

B1: DR468(DR240-DR234) (bispecific antibody)
chain: QVQLQESGGGSVQAGGSLRLSCGASGYTYSSYCMGWFRQVPGKEREGVAVIDSDGSTSYADSVKGRFTISKDNGKNTLYLQMNSLKPEDTAMYYCAADLGHYRPPCGVLYLGMDYWGKGTQVTVSSGGGSQVQLQESGGGSVQAGGSLRLSCVASGYTFSSYCMGWFRQAPGKEREGVAALGGGSTYYADSVKGRFTISQDNAKNTLYLQMNSLKPEDTAMYYCAAAWVACLEFGGSWYDLARYKHWGQGTQVTVSSASHHHHHH
notes: Anti-hIL10Ra/hIL2Rg dual VHH with ASH6 handle; also called G8
In general, Kd refers to the constant that tells how readily two partners part at equilibrium. A low value points to higher affinity. Usually koff stands for the rate constant with which the complex falls apart. Low values mean a long-lived complex, high ones a short-lived complex. Usually kon stands for the rate constant with which the complex forms. Higher therefore signals fast association. Regarding B1, the “Surface Activity” value in assay [1] was 1%. Also, the “Surface Activity” value in assay [2] was 6%. Moreover, in assay [3], binding was put at a Kd of 4.3 nM, the koff was 0.001 s⁻¹ and the on-rate constant (kon) is 240000 M⁻¹ s⁻¹. Further, in assay [4], the Kd was 8.5 nM, the koff came to 0.0015 s⁻¹ and the kon was 170000 M⁻¹ s⁻¹.

B2: DR395(DR229-DR239) (bispecific antibody)
chain: QVQLQESGGGLVQPGGSLRLSCTASGFSFSSYPMTWARQAPGKGLEWVSTIASDGGSTAYAASVEGRFTISRDNAKSTLYLQLNSLKTEDTAMYYCTKGYGDGTPAPGQGTQVTVSSGGGSQVQLQESGGGSVQAGGSLRLSCTVSGYTYSSNCMGWFRQAPGKEREGVATIYTGGGNTYYADSVKGRFTISQDNAKNTVYLQMNNLKPEDTAMYYCAAEPLSRVYGGSCPTPTFDYWGQGTQVTVSSASHHHHHH
notes: Anti-hIL10Ra/hIL2Rg dual VHH with ASH6 handle; also called A2
B2: the “Surface Activity” value in assay [1] was 2%; in assay [2] it was 5%. Besides, the Kd stood at 3.2 nM in assay [3] and 3.9 nM in assay [4]. Further, the koff in assay [3] was 0.0026 s⁻¹; in assay [4] it was 0.0078 s⁻¹. Also, the kon in assay [3] is 800000 M⁻¹ s⁻¹; in assay [4], 2e+06 M⁻¹ s⁻¹.
